Columns and labels:
Test in all cases: cell-based or functional assay
GLP1R = GLP1R (UniProt P43220)
[1] = biological target: Vasoactive Intestinal Peptide 1 receptor (UniProt P32241)
Melanocortin 5 receptor = Melanocortin 5 receptor (UniProt P33032)
Melanocortin 1 receptor = Melanocortin 1 receptor (UniProt Q01726)
CRHR1 = CRHR1 (UniProt P34998)
CRHR1, sequence (P34998 24-415 limits assumed): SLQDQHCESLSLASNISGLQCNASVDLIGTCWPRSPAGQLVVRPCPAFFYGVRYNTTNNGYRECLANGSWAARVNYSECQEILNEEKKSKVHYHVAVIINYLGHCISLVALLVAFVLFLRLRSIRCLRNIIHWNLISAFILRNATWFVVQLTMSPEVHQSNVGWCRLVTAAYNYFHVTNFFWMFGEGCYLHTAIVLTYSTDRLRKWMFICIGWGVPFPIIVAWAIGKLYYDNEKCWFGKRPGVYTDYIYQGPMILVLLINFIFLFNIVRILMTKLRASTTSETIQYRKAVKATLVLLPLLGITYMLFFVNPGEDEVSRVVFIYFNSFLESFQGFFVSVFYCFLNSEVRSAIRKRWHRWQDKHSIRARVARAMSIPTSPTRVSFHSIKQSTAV

Melanocortin 5 receptor, sequence (P33032 whole entry): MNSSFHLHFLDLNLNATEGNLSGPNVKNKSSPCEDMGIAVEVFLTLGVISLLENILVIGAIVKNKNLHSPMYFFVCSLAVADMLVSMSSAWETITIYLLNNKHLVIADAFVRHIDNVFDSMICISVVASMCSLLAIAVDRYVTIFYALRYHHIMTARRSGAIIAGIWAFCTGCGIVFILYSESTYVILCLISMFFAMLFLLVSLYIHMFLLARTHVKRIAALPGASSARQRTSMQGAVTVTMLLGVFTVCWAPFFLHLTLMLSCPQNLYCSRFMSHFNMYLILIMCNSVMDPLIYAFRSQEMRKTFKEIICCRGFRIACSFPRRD
Melanocortin 1 receptor, sequence (Q01726 whole entry): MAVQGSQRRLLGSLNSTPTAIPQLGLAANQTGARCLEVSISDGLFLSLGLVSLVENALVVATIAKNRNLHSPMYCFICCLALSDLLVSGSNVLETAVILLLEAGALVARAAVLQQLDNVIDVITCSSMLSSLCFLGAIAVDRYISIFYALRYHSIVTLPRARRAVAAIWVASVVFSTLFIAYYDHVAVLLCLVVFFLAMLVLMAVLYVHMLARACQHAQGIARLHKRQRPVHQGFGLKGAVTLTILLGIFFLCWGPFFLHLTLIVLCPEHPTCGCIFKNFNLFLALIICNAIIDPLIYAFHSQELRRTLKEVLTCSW
Vasoactive Intestinal Peptide 1 receptor, sequence (P32241 31-457): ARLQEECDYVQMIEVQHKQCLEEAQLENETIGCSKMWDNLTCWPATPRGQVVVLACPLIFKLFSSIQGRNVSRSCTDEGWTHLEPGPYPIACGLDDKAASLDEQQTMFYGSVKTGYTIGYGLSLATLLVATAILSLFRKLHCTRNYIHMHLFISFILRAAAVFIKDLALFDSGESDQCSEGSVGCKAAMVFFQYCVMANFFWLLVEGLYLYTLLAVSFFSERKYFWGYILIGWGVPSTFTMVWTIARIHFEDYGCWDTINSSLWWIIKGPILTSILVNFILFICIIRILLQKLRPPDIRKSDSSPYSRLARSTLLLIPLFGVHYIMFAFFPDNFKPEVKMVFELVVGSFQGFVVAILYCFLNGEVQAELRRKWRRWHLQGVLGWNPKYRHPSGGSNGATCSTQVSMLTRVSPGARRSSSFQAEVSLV
GLP1R, sequence (P43220 24-463 limits assumed): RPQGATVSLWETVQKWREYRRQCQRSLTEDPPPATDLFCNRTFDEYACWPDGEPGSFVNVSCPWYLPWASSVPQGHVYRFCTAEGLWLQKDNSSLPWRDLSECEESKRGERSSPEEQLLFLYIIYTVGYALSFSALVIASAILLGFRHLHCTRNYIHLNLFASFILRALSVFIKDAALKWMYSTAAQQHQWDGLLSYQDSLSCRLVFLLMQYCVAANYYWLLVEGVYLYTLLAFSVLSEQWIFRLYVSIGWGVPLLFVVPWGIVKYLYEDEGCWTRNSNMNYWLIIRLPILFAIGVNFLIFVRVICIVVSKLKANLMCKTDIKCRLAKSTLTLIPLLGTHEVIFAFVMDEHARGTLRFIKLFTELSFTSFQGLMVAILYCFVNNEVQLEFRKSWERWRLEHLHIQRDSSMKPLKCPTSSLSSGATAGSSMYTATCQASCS

Molecule GLP (peptide) has an EC50 of cell response (CNG channel voltage dye assay; NY & H30602) (GLP1R) of 0.003 nM.

“VIP (from UniProt P01282 125-152) (peptide)” was tested, and the EC50 of cell response (CNG channel voltage dye assay; MDC dye) [1] was 0.0024 nM, the EC50 of cell response (CNG channel voltage dye assay; TB & H30602) [1] was 0.005 nM and the Fmax/Fb maximal response (CNG channel voltage dye assay; MDC dye) [1] was 4.9. It also gave an Fmax/Fb maximal response (CNG channel voltage dye assay; TB & H30602) [1] of 5.

“[Nle4-D-Phe7]α-MSH (from UniProt P01189 138-150) (peptide)” gave an EC50 of cell response (CNG channel voltage dye assay; MDC dye) (Melanocortin 5 receptor) of 0.0029 nM, an EC50 of cell response (CNG channel voltage dye assay; NR & H30602) (Melanocortin 5 receptor) of 0.0013 nM and an EC50 of cell response (CNG channel voltage dye assay; NY & H30602) (Melanocortin 5 receptor) of 950 nM. It also gave an Fmax/Fb maximal response (CNG channel voltage dye assay; MDC dye) (Melanocortin 5 receptor) of 3.6, an Fmax/Fb maximal response (CNG channel voltage dye assay; NR & H30602) (Melanocortin 5 receptor) of 3.2 and an Fmax/Fb maximal response (CNG channel voltage dye assay; NY & H30602) (Melanocortin 5 receptor) of 3.4.

With “α-MSH (from UniProt P01189 138-150) (peptide)” the EC50 of cell response (CNG channel voltage dye assay; MDC dye) (Melanocortin 1 receptor) was 820 nM, the EC50 of cell response (CNG channel voltage dye assay; TB & H30602) (Melanocortin 1 receptor) was 770 nM and the Fmax/Fb maximal response (CNG channel voltage dye assay; MDC dye) (Melanocortin 1 receptor) was 5. It also gave an Fmax/Fb maximal response (CNG channel voltage dye assay; TB & H30602) (Melanocortin 1 receptor) of 5.1.

Molecule SEEPPISLDLTFHLLREVLEMARAEQLAQQAHSNRKLMEII (peptide, UniProt P06850 154-194, looked up) [CRF] has an EC50 of cell response (CNG channel voltage dye assay; MDC dye) (CRHR1) of 0.028 nM, an EC50 of cell response (CNG channel voltage dye assay; NY & H30602) (CRHR1) of 0.028 nM and an Fmax/Fb maximal response (CNG channel voltage dye assay; MDC dye) (CRHR1) of 4.2. For the same molecule, the Fmax/Fb maximal response (CNG channel voltage dye assay; NY & H30602) (CRHR1) was 4.3.

Source: US20050221426A1
